Substitutions are numbered along the chain they refer to.
T1: CD46 (UniProt P15529 35-343)
T1 construct: The form used in the Kd measurement is not described
T1 sequence: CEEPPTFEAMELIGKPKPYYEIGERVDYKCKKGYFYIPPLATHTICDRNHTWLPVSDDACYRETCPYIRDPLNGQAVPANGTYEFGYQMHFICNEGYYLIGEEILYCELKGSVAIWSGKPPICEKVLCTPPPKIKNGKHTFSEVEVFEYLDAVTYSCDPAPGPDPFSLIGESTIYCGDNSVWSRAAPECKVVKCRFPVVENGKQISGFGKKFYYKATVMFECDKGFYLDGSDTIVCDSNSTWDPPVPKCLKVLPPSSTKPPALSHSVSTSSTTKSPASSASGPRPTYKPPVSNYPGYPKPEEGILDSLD

B1: Mutated Ad35 Knob A8: Ile192Val Ile256Val (other)
chain: LWTGINPPPNCQIVENTNTNDGKLTLVLVKNGGLVNGYVSLVGVSDTVNQMFTQKTANVQLRLYFDSSGNLLTEESDLKIPLKNKSSTATSETVASSKAFMPSTTAYPFNTTTRDSENYIHGVCYYMTSYDRSLFPLNISIMLNSRMISSNVAYAIQFEWNLNASESPESNIATLTTSPFFFSYITEDDN
B2: wtAd35(207Asp) knob (other)
chain: B1 chain with V59I, E74D, V123I
notes: also called B2
B3: Ad11 (fiber knob) (other)
chain: LWTGVNPTEANCQIMNSSESNDCKLILTLVKTGALVTAFVYVIGVSNNFNMLTTHRNINFTAELFFDSTGNLLTRLSSLKTPLNHKSGQNMATGAITNAKGFMPSTTAYPFNDNSREKENYIYGTCYYTASDRTAFPIDISVMLNRRAINDETSYCIRITWSWNTGDAPEVQTSATTLVTSPFTFYYIREDD
notes: also called B7

Each binder was assayed against T1, CD46 (assay: Kd of knob for CD46; method not stated).
B1 was tested, and the Kd was 13.7 nM. B2 gave a Kd of 15 nM. Work on B3 yielded a Kd of 11.2 nM.

— US20250369013A1 (ENSOMA, published 2025)
